Test results taken from patent US20260356943 (published 2026).
Numbering of substitutions follows the chain as printed. One block for each binder: values may come before it.

Columns and labels:
[1] = target: T1, human ROR1 (human, UniProt Q01973); assay: ELISA, stored 37C 2 weeks
[2] = target: T1, human ROR1; assay: ELISA, stored 4C
[3] = target: T2, human B7-H3 (human, UniProt Q5ZPR3); assay: ELISA, stored 40C 2 weeks
T2 chain: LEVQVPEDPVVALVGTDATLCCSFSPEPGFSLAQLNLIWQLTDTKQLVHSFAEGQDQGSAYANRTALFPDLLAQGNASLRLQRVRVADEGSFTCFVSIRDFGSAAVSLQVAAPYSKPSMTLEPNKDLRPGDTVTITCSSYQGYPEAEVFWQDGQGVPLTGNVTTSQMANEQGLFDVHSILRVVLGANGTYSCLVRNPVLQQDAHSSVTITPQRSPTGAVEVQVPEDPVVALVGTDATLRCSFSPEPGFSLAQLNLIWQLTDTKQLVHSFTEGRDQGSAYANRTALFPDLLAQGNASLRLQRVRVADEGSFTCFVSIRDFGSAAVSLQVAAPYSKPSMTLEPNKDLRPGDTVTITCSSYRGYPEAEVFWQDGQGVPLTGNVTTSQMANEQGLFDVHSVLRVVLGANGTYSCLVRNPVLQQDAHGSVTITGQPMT

[4] = target: T2, human B7-H3; assay: ELISA, stored 4C
[5] = target: T1, human ROR1; assay: ELISA, human serum 7 days
[6] = target: T1, human ROR1; assay: ELISA, monkey serum 0 day
[7] = target: T1, human ROR1; assay: ELISA, human serum 3 days
[8] = target: T1, human ROR1; assay: ELISA, human serum 0 day
[9] = target: T1, human ROR1; assay: ELISA, monkey serum 7 days
[10] = target: T1, human ROR1; assay: ELISA, dual-antigen capture ROR1/4-1BB
[11] = target: T1, human ROR1; assay: ELISA, human serum 14 days
[12] = target: T1, human ROR1; assay: ELISA, monkey serum 14 days
[13] = target: T1, human ROR1; assay: ELISA, monkey serum 3 days
[14] = target: T1, human ROR1; assay: SPR, 25C, bivalent analyte
[15] = target: T1, human ROR1; assay: ELISA, stored 4C; remark: listed apart in the source
[16] = target: T1, human ROR1; assay: ELISA, stored 40C 2 weeks
[17] = target: T1, human ROR1; assay: ELISA, monkey serum 2 days
[18] = target: T1, human ROR1; assay: ELISA, human serum 2 days
[19] = target: human 4-1BB (human, UniProt Q07011); assay: SPR, 25C
Chain of human 4-1BB (Q07011 24-186): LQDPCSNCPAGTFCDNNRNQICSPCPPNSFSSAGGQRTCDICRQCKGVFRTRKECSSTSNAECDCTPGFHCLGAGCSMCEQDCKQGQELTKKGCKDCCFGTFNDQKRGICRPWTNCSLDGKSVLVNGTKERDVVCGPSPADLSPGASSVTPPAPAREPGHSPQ

T1 sequence (Q01973 30-403): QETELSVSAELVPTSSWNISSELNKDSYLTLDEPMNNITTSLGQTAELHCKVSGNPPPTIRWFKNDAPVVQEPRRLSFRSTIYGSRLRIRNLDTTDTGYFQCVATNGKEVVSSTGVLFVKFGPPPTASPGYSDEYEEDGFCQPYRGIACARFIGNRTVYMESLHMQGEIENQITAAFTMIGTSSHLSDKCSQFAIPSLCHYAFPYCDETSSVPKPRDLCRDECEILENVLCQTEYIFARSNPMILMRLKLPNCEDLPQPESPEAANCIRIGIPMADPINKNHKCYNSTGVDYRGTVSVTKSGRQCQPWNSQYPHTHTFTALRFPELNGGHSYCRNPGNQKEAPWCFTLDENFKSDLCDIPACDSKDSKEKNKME

B1: BA6M11 IgG (antibody, V domains shown)
VH: EVQLLESGGGLVQPGGSLRLSCAASGFTFSNYDMSWVRQAPGKGLEWVSAIYHSGSSKYYADSVKGRFTISRDNSKNTLYLQMNSLRAEDTAVYYCARGGSGAWDTGFDYWGQGTLVTVSS
VL: QSVLTQPPSASGTPGQRVTISCSGSSSNIGSNDVSWYQQLPGTAPKLLIYYENNRPSGVPDRFSGSKSGTSASLAISGLRSEDEADYYCGAWDDSLSGYVFGGGTKLTVL
EC50 [1]: 0.129 nM
EC50 [2]: 0.166 nM

B2: BA6M11xB5 B7-H3 arm (antibody, V domains shown)
VH: EVQLLESGGGLVQPGGSLRLSCAASGFTFSDYAMSWVRQAPGKCLEWVSSISSGSGSIYYADSVKGRFTISRDNSKNTLYLQMNSLRAEDTAVYYCAKNLIPLDYWGQGTLVTVSS
VL: B1 VL with D33A, E52N, N53S, N54H, A91S, D94A, S97N, G98A, G103C
EC50 [3]: 0.19 nM
EC50 [4]: 0.232 nM

B3: BA6M11(NA)x1A10M12 ROR1 arm (antibody, V domains shown)
VH: B1 VH
VL: B1 VL
EC50 [5]: 0.236 nM
EC50 [6]: 0.208 nM
EC50 [7]: 0.22 nM
EC50 [8]: 0.211 nM
EC50 [9]: 0.257 nM
EC50 [10]: 0.268 nM
EC50 [11]: 0.233 nM
EC50 [12]: 0.273 nM
EC50 [13]: 0.238 nM
Kd [14]: 6.65 nM

B4: BA6M11xB5 ROR1 arm (antibody, V domains shown)
VH: B1 VH
VL: B1 VL
EC50 [15]: 0.152 nM
EC50 [16]: 0.134 nM

B8: BA6 IgG (WT) (antibody, V domains shown)
VH: B1 VH with S101N
VL: B1 VL with E52D
EC50 [1]: 0.261 nM
EC50 [2]: 0.217 nM

B9: BA6M11(WT)x1A10M12 4-1BB arm (antibody, V domains shown)
VH: EVQLLESGGGLVQPGGSLRLSCAASGFTFSSYDMSWVRQAPGKCLEWVSWISYSGGSIYYADSVKGRFTISRDNSKNTLYLQMNSLRAEDTAVYYCARDAQRNSMREFDYWGQGTLVTVSS
VL: QSVLTQPPSASGTPGQRVTISCSGSSSNIGNNYVTWYQQLPGTAPKLLIYADSHRPSGVPDRFSGSKSGTSASLAISGLRSEDEADYYCATWDYSLSGYVFGCGTKLTVL
Kd [19]: 4.53 nM

B10: BA6M11(WT)x1A10M12 ROR1 arm (antibody, V domains shown)
VH: B1 VH
VL: B1 VL
Kd [14]: 6.05 nM

B11: BA6M11(NA)x1A10M12 4-1BB arm (antibody, V domains shown)
VH: B9 VH
VL: B9 VL
Kd [19]: 4.5 nM

More lines, now with the values ahead:

EC50 [5]: 0.42 nM
EC50 [6]: 0.24 nM
EC50 [8]: 0.228 nM
EC50 [9]: 0.427 nM
EC50 [10]: 0.386 nM
EC50 [11]: 0.457 nM
EC50 [12]: 0.419 nM
EC50 [17]: 0.36 nM
EC50 [18]: 0.365 nM
B5: BA6x1A10M12 ROR1 arm (antibody, V domains shown)
VH: B1 VH with S101N
VL: B1 VL with E52D

EC50 [3]: 0.186 nM
EC50 [4]: 0.173 nM
B6: BA6xB5 B7-H3 arm (antibody, V domains shown)
VH: B2 VH
VL: B1 VL with D33A, E52N, N53S, N54H, A91S, D94A, S97N, G98A, G103C

EC50 [15]: 0.141 nM
EC50 [16]: 0.18 nM
B7: BA6xB5 ROR1 arm (antibody, V domains shown)
VH: B1 VH with S101N
VL: B1 VL with E52D
